This is an account of results in the supplement of paper PMC7877785.

± gives the uncertainty stated by the source.

This series is described as follows: self-splicing fitness, log relative to wild type (ln ratio); higher = more splicing; Tetrahymena group I intron in knt gene, E. coli kanamycin selection, DiMSum; sequences stand for … in CUCUCU…GGAGGGAAAAGUUAUCAGGCAUGCACCUGGUAGCUAGUCUUUAAACCAAUAGAUUGCAUCGGUUUAAAAGGCAAGACCGUCAAAUUGCGGGAAAGGGGUCAACAGCCGUUCAGUACCAAGUCUCAGGGGAAACUUUGAGAUGGCCUUGCAAAGGGUAUGGUAAUAAGCUGACGGACAUGGUCCUAACCACGCAGCCAAGUCCUAAGUCAACAGAUCUUCUGUUGAUAUGGAUGCAGUUCACAGACUAAAUGUCGGUCGGGGAAGAUGUAUUCUUCUCAUAAGAUAUAGUCGGACCUCUCCUUAAUGGGAGCUAGCGGAUGAAGUGAUGCAACACUGGAGCCGCUGGGAACUAAUUUGUAUGCGAAAGUAUAUUGAUUAGUUUUGGAGUACUCGUGGUCG
An outline of the steps:
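Colonies from six replicate transformations of E. coli BL21(DE3) were pooled and amplicon-sequenced on an Illumina HiSeq 2500. The library placed an intron with all eight P1ex-region nucleotides randomised inside the knt kanamycin-resistance gene on pET-22b(+), and cells grew overnight at 37°C or 30°C on LB agar with or without 25 μg/mL kanamycin (plus 100 μg/mL carbenicillin, 50 μM IPTG, 0.2% rhamnose). Fitness is the DiMSum error-weighted combination of wild-type-normalised replicate fold changes, kanamycin versus none.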

Consider GAAGAGCAAUAUUACGACGA, for which the “self-splicing fitness (ln)” value (37 °C) is -2.03 ± 0.42.
CAAUAGCAAUAUUACGGGUA: the “self-splicing fitness (ln)” value runs as follows: (30 °C) -3.9 ± 0.21; (37 °C) -3.12 ± 0.18.
As for GUUCAGCAAUAUUACGAAGC, the “self-splicing fitness (ln)” value reads like this: (30 °C) -0.705 ± 0.18; (37 °C) -1.29 ± 0.2.
As to GAAUAGCAAUAUUACGGGUU, the “self-splicing fitness (ln)” value (30 °C) is -2.48 ± 0.14 and the “self-splicing fitness (ln)” value (37 °C) is -1.86 ± 0.17.
For the sequence GAUGAGCAAUAUUACGCCCU, the “self-splicing fitness (ln)” value (30 °C) was -1.75 ± 0.15 and the “self-splicing fitness (ln)” value (37 °C) is -1.4 ± 0.17.
In the case of CGAAAGCAAUAUUACGAUGG, the “self-splicing fitness (ln)” value was -0.519 ± 0.07 (30 °C) and 0.406 ± 0.1 (37 °C).
For UCCAAGCAAUAUUACGACGU, in that order: -0.266 ± 0.068 and 0.0245 ± 0.073.
In the same order, the values of CAGCAGCAAUAUUACGUGCC are -3.2 ± 0.17 and -2.05 ± 0.21.
GGGUAGCAAUAUUACGCUCG: the “self-splicing fitness (ln)” value was -0.269 ± 0.13 (30 °C) and -0.258 ± 0.16 (37 °C).
For UAUCAGCAAUAUUACGUCUG, in that order: -0.947 ± 0.076 and -0.205 ± 0.1.
Consider GCCGAGCAAUAUUACGAUGG, for which the “self-splicing fitness (ln)” value was -2.48 ± 0.26 (30 °C) and -2.96 ± 0.31 (37 °C).
For ACCAAGCAAUAUUACGUGGG, in that order: -3.46 ± 0.13 and -2.4 ± 0.11.
Consider UUCCAGCAAUAUUACGGGAU, for which the “self-splicing fitness (ln)” value is -3.25 ± 0.11 (30 °C) and -3.13 ± 0.19 (37 °C).
For UCUUAGCAAUAUUACGCGAU, in that order: -3.71 ± 0.33 and -3.67 ± 0.34.
As to GACAAGCAAUAUUACGGUCU, the “self-splicing fitness (ln)” value runs as follows: (30 °C) -4.04 ± 0.16; (37 °C) -2.42 ± 0.15.
With CUAUAGCAAUAUUACGCAAC, the “self-splicing fitness (ln)” value (37 °C) was -2.26 ± 0.35.
With GAACAGCAAUAUUACGACCA, the “self-splicing fitness (ln)” value by setting is: (30 °C) -0.754 ± 0.12; (37 °C) -0.113 ± 0.12.
For AAGUAGCAAUAUUACGGCCU, the “self-splicing fitness (ln)” value runs as follows: (30 °C) -0.0359 ± 0.073; (37 °C) -0.35 ± 0.091.
With GUGGAGCAAUAUUACGAAAA, the “self-splicing fitness (ln)” value (30 °C) is -2.27 ± 0.43.
Take UCGUAGCAAUAUUACGCCUA: the “self-splicing fitness (ln)” value (30 °C) was -0.658 ± 0.13 and the “self-splicing fitness (ln)” value (37 °C) is 0.291 ± 0.11.
As to GGCGAGCAAUAUUACGAAAA, the “self-splicing fitness (ln)” value (37 °C) was -2.97 ± 0.47.
In the case of CUUCAGCAAUAUUACGGCCG, the “self-splicing fitness (ln)” value is, setting by setting: (30 °C) -0.988 ± 0.16; (37 °C) -0.154 ± 0.21.
With UGAGAGCAAUAUUACGCUAA, the “self-splicing fitness (ln)” value by setting is: (30 °C) -2.28 ± 0.31; (37 °C) -2.53 ± 0.31.
In the same order, the values of GCGCAGCAAUAUUACGUACC are -1.63 ± 0.11 and -0.655 ± 0.13.
As to GCGUAGCAAUAUUACGCCGA, the “self-splicing fitness (ln)” value (37 °C) is -2.28 ± 0.47.
Consider AUACAGCAAUAUUACGGCAA, for which the “self-splicing fitness (ln)” value runs as follows: (30 °C) -0.488 ± 0.076; (37 °C) 0.0743 ± 0.078.
As to UUCUAGCAAUAUUACGUAGA, the “self-splicing fitness (ln)” value reads like this: (30 °C) -3.73 ± 0.29; (37 °C) -2.19 ± 0.25.
On to AGGUAGCAAUAUUACGUCGC, for which the “self-splicing fitness (ln)” value is -2.37 ± 0.023 (30 °C) and -1.48 ± 0.037 (37 °C).
For AUUAAGCAAUAUUACGAAAG, in that order: -1.89 ± 0.15 and -1.23 ± 0.16.
For CAGCAGCAAUAUUACGAGGA, in that order: -2.63 ± 0.2 and -2.42 ± 0.23.
For UAUAAGCAAUAUUACGGGUC, in that order: -3.27 ± 0.34 and -1.78 ± 0.24.
Turning to UGAGAGCAAUAUUACGAAAC, for the setting “37 °C”, the “self-splicing fitness (ln)” value was -1.1 ± 0.37.
Consider CUUCAGCAAUAUUACGAGUG, for which the “self-splicing fitness (ln)” value (30 °C) is -0.689 ± 0.051 and the “self-splicing fitness (ln)” value (37 °C) was -0.602 ± 0.071.
On to UGUGAGCAAUAUUACGGCAA, for which the “self-splicing fitness (ln)” value runs as follows: (30 °C) -1.83 ± 0.23; (37 °C) -1.27 ± 0.25.
On to GAAAAGCAAUAUUACGCGCA, for which the “self-splicing fitness (ln)” value is -0.195 ± 0.062 (30 °C) and -0.0235 ± 0.084 (37 °C).
On to GACCAGCAAUAUUACGGGCG, for which the “self-splicing fitness (ln)” value runs as follows: (30 °C) 0.17 ± 0.059; (37 °C) 0.374 ± 0.078.
For GAACAGCAAUAUUACGGAGU, in that order: -2.35 ± 0.066 and -1.66 ± 0.1.
For GGUCAGCAAUAUUACGCAAA, in that order: -1.16 ± 0.17 and -0.412 ± 0.18.
As to GAAGAGCAAUAUUACGGAGA, the “self-splicing fitness (ln)” value by setting is: (30 °C) -3.22 ± 0.31; (37 °C) -1.88 ± 0.32.
For AGGAAGCAAUAUUACGUUCU, in that order: -3.47 ± 0.28 and -1.59 ± 0.17.
In the same order, the values of UAUGAGCAAUAUUACGGACG are -2.79 ± 0.25 and -1.19 ± 0.23.
For CCACAGCAAUAUUACGGAUU, in that order: -3.49 ± 0.11 and -3.12 ± 0.15.
On to AAUCAGCAAUAUUACGAAUA, for which the “self-splicing fitness (ln)” value is, setting by setting: (30 °C) 0.443 ± 0.16; (37 °C) -0.266 ± 0.12.
In the same order, the values of CCCUAGCAAUAUUACGCCGA are -3.85 ± 0.33 and -2.31 ± 0.3.
For UGAUAGCAAUAUUACGUGCA, in that order: -0.486 ± 0.054 and 0.164 ± 0.076.
Consider CGGAAGCAAUAUUACGGCCC, for which the “self-splicing fitness (ln)” value runs as follows: (30 °C) 0.0304 ± 0.18; (37 °C) 0.0512 ± 0.23.
For GCCGAGCAAUAUUACGUGCA, in that order: -2.31 ± 0.25 and -2.24 ± 0.18.
Regarding GUGAAGCAAUAUUACGUCCC, the “self-splicing fitness (ln)” value is, setting by setting: (30 °C) -1.28 ± 0.35; (37 °C) -0.367 ± 0.2.
On to CAUAAGCAAUAUUACGGACA, for which the “self-splicing fitness (ln)” value (30 °C) is -3.09 ± 0.25 and the “self-splicing fitness (ln)” value (37 °C) is -2.11 ± 0.19.
For the sequence CGACAGCAAUAUUACGCCGC, the “self-splicing fitness (ln)” value (37 °C) was -1.74 ± 0.36.
On the same count and under the same terms, under UCAGAGCAAUAUUACGAAGA stands -2.32 ± 0.42.
Consider GGGGAGCAAUAUUACGCGGG, for which the “self-splicing fitness (ln)” value reads like this: (30 °C) -2.7 ± 0.31; (37 °C) -1.72 ± 0.39.
CAGUAGCAAUAUUACGCCUG: the “self-splicing fitness (ln)” value runs as follows: (30 °C) -2.42 ± 0.25; (37 °C) -2.46 ± 0.44.
In the same order, the values of GACGAGCAAUAUUACGUAAG are -3.67 ± 0.41 and -0.245 ± 0.22.
Take GCGCAGCAAUAUUACGUCGU: the “self-splicing fitness (ln)” value by setting is: (30 °C) -3.02 ± 0.12; (37 °C) -2.75 ± 0.18.
In the same order, the values of CAAGAGCAAUAUUACGCACG are -1.96 ± 0.11 and -0.942 ± 0.12.
Take AGCGAGCAAUAUUACGAUUU: the “self-splicing fitness (ln)” value by setting is: (30 °C) -1.4 ± 0.1; (37 °C) -0.548 ± 0.14.
GCUUAGCAAUAUUACGGGUU: the “self-splicing fitness (ln)” value (30 °C) was -1.95 ± 0.094 and the “self-splicing fitness (ln)” value (37 °C) is -1.43 ± 0.14.
On to UUUGAGCAAUAUUACGUAAC, for which the “self-splicing fitness (ln)” value (30 °C) is -2.01 ± 0.5.
Consider CAGCAGCAAUAUUACGGCCU, for which the “self-splicing fitness (ln)” value (30 °C) was -0.922 ± 0.1 and the “self-splicing fitness (ln)” value (37 °C) is -0.208 ± 0.12.
Turning to CCUCAGCAAUAUUACGCGAA, the “self-splicing fitness (ln)” value runs as follows: (30 °C) -3.88 ± 0.34; (37 °C) -3.79 ± 0.34.
Take GAUAAGCAAUAUUACGUCGU: the “self-splicing fitness (ln)” value was -1.68 ± 0.072 (30 °C) and -0.373 ± 0.086 (37 °C).
With CCCCAGCAAUAUUACGUCAG, the “self-splicing fitness (ln)” value was -2.54 ± 0.14 (30 °C) and -1.36 ± 0.15 (37 °C).
With ACCAAGCAAUAUUACGCAGA, the “self-splicing fitness (ln)” value by setting is: (30 °C) -2.84 ± 0.25; (37 °C) -0.709 ± 0.14.
In the same order, the values of UGCCAGCAAUAUUACGACUG are -2.79 ± 0.12 and -2.14 ± 0.13.
In the same order, the values of ACAGAGCAAUAUUACGACUA are -1.17 ± 0.48 and -1.17 ± 0.42.
Regarding UUGGAGCAAUAUUACGAGCA, the “self-splicing fitness (ln)” value is -3.18 ± 0.37 (30 °C) and -1.74 ± 0.31 (37 °C).
For CGCCAGCAAUAUUACGUAAC, in that order: -3.91 ± 0.24 and -2.96 ± 0.28.
Take CCAGAGCAAUAUUACGAGUA: the “self-splicing fitness (ln)” value by setting is: (30 °C) -2.97 ± 0.23; (37 °C) -3.39 ± 0.28.
With UCUCAGCAAUAUUACGCGGU, the “self-splicing fitness (ln)” value is -2.89 ± 0.26 (30 °C) and -2.3 ± 0.28 (37 °C).
As for ACUAAGCAAUAUUACGAGCA, the “self-splicing fitness (ln)” value is, setting by setting: (30 °C) -1.29 ± 0.086; (37 °C) -0.197 ± 0.098.
In the same order, the values of AAUCAGCAAUAUUACGCGAU are -2.8 ± 0.14 and -2.07 ± 0.14.
In the same order, the values of CCUUAGCAAUAUUACGAAGA are -2.58 ± 0.27 and -3.3 ± 0.26.
In the same order, the values of GCAUAGCAAUAUUACGUCUU are -1.46 ± 0.1 and -0.342 ± 0.11.
For the sequence CUAAAGCAAUAUUACGUAUA, the “self-splicing fitness (ln)” value (30 °C) was -3.23 ± 0.14 and the “self-splicing fitness (ln)” value (37 °C) was -3.09 ± 0.28.
On to AGGAAGCAAUAUUACGAUCA, for which the “self-splicing fitness (ln)” value reads like this: (30 °C) -0.344 ± 0.091; (37 °C) -0.31 ± 0.09.
For the sequence GAGAAGCAAUAUUACGGCCG, the “self-splicing fitness (ln)” value runs as follows: (30 °C) -0.178 ± 0.17; (37 °C) -0.256 ± 0.34.
In the same order, the values of UAAGAGCAAUAUUACGUUGC are -2.74 ± 0.29 and -2.32 ± 0.4.
